# Tests used:
# HLA-A*23:01 = test: IEDB peptide-MHC binding, purified MHC/competitive/radioactivity; filed as Kd, often an IC50 or EC50 that approximates it; ≥ and ≤ were set here for values at or beyond the usual limits of such assays
# HLA-A*24:02 = test: as above
# HLA-A*30:02 = test: as above
# HLA-A*01:01 [1] = test: as above
# HLA-A*29:02 = test: as above
# HLA-A*26:01 = test: as above
# HLA-A*02:01 [2] = test: IEDB peptide-MHC binding, purified MHC/competitive/fluorescence; filed as Kd, often an IC50 or EC50 that approximates it; ≥ and ≤ were set here for values at or beyond the usual limits of such assays; conditions: source organism: Vaccinia virus Copenhagen
# HLA-B*07:02 = test: IEDB peptide-MHC binding, purified MHC/direct/fluorescence; filed as Kd, often an IC50 or EC50 that approximates it; ≥ and ≤ were set here for values at or beyond the usual limits of such assays
# HLA-A*01:01 [3] = test: as above
# HLA-B*58:01 = test: as above; conditions: source organism: SARS-CoV1
# HLA-B*44:03 = test: IEDB peptide-MHC binding, purified MHC/competitive/radioactivity; filed as Kd, often an IC50 or EC50 that approximates it; ≥ and ≤ were set here for values at or beyond the usual limits of such assays
# HLA-A*02:01 [4] = test: IEDB peptide-MHC binding, purified MHC/direct/fluorescence; filed as Kd, often an IC50 or EC50 that approximates it; ≥ and ≤ were set here for values at or beyond the usual limits of such assays; conditions: source organism: Marburg virus - Musoke, Kenya, 1980
# HLA-A*69:01 = test: as above; conditions: source organism: Marburg virus - Musoke, Kenya, 1980
# HLA-A*32:01 = test: IEDB peptide-MHC binding, purified MHC/competitive/radioactivity; filed as Kd, often an IC50 or EC50 that approximates it; ≥ and ≤ were set here for values at or beyond the usual limits of such assays
# HLA-B*40:01 = test: as above
# HLA-A*03:01 = test: IEDB peptide-MHC binding, purified MHC/direct/fluorescence; filed as Kd, often an IC50 or EC50 that approximates it; ≥ and ≤ were set here for values at or beyond the usual limits of such assays; conditions: source organism: Brucella abortus
# HLA-B*15:01 = test: as above; conditions: source organism: Brucella abortus
# HLA-A*11:01 = test: as above; conditions: source organism: Brucella abortus
# [5] = source organism: Mammarenavirus guanaritoense
# [6] = source organism: SARS coronavirus Tor2
# [7] = source organism: Mycobacterium tuberculosis
# [8] = source organism: Vaccinia virus WR
# [9] = source organism: Dengue virus 2 Jamaica/1409/1983
# [10] = source organism: Triticum aestivum
# [11] = source organism: Dengue virus 1 Brazil/97-11/1997
# [12] = source organism: Dengue virus 3 Martinique/1243/1999
# [13] = source organism: Mammarenavirus juninense
# [14] = source organism: Mammarenavirus whitewaterense
sequence,measurement,setting,value
LKILVLSIL,Kd,HLA-A*23:01; [5],11100 nM
same,Kd,HLA-A*24:02; [5],1830 nM
same,Kd,HLA-A*30:02; [5],11000 nM
same,Kd,HLA-A*01:01 [1]; [5],272 nM
same,Kd,HLA-A*29:02; [5],15100 nM
same,Kd,HLA-A*26:01; [5],≥ 32600 nM
LLNNSLGSV,Kd,HLA-A*02:01 [2],3.6 nM
LLWKTWYPC,Kd,HLA-B*07:02; source organism: Homo sapiens,14600 nM
LSDHQDLKW,Kd,HLA-A*01:01 [3]; source organism: SARS-CoV1,818 nM
same,Kd,HLA-B*58:01,26.6 nM
LSNFGAPSY,Kd,HLA-A*23:01; [6],≥ 77800 nM
same,Kd,HLA-A*24:02; [6],≥ 77600 nM
same,Kd,HLA-A*30:02; [6],1.77 nM
same,Kd,HLA-A*01:01 [1]; [6],81.2 nM
same,Kd,HLA-A*29:02; [6],13.9 nM
same,Kd,HLA-A*26:01; [6],4580 nM
LTKGTLEPEY,Kd,HLA-A*23:01; [6],≥ 70000 nM
same,Kd,HLA-A*24:02; [6],≥ 70300 nM
same,Kd,HLA-A*30:02; [6],536 nM
same,Kd,HLA-A*01:01 [1]; [6],3200 nM
same,Kd,HLA-A*29:02; [6],2050 nM
same,Kd,HLA-A*26:01; [6],1990 nM
LTQDLFLPFY,Kd,HLA-A*23:01; [6],18000 nM
same,Kd,HLA-A*24:02; [6],10500 nM
same,Kd,HLA-A*30:02; [6],2.26 nM
same,Kd,HLA-A*01:01 [1]; [6],8.38 nM
same,Kd,HLA-A*29:02; [6],53.5 nM
same,Kd,HLA-A*26:01; [6],481 nM
MEVEIWTRE,Kd,HLA-B*44:03; source organism: Dengue virus 4 Philippines/H241/1956,1080 nM
MIRAQAGSL,Kd,HLA-B*07:02; [7],33.5 nM
MLAKYDHLV,Kd,HLA-A*02:01 [4],27 nM
same,Kd,HLA-A*69:01,104 nM
MMSAPPAEY,Kd,HLA-A*23:01; [6],≥ 51100 nM
same,Kd,HLA-A*24:02; [6],12700 nM
same,Kd,HLA-A*30:02; [6],0.112 nM
same,Kd,HLA-A*01:01 [1]; [6],182 nM
same,Kd,HLA-A*29:02; [6],1.23 nM
same,Kd,HLA-A*26:01; [6],2240 nM
MTLFKSILF,Kd,HLA-A*32:01; [8],11.3 nM
MTLGMCCII,Kd,HLA-A*32:01; [9],2590 nM
MTVASRQPI,Kd,HLA-A*32:01; [8],2860 nM
NMVYMPASW,Kd,HLA-A*23:01; [6],706 nM
same,Kd,HLA-A*24:02; [6],4020 nM
same,Kd,HLA-A*30:02; [6],≥ 96800 nM
same,Kd,HLA-A*01:01 [1]; [6],≥ 78100 nM
same,Kd,HLA-A*29:02; [6],≥ 25100 nM
same,Kd,HLA-A*26:01; [6],≥ 77900 nM
PTTTYTLEY,Kd,HLA-A*01:01 [3]; [7],14.2 nM
QFEEIRNLAL,Kd,HLA-A*23:01; [10],≥ 21700 nM
same,Kd,HLA-A*24:02; [10],6850 nM
same,Kd,HLA-A*30:02; [10],7390 nM
same,Kd,HLA-A*01:01 [1]; [10],≥ 70400 nM
same,Kd,HLA-A*29:02; [10],3880 nM
same,Kd,HLA-A*26:01; [10],≥ 69700 nM
QYGSFCTQL,Kd,HLA-A*23:01; [6],≥ 75400 nM
same,Kd,HLA-A*24:02; [6],≥ 107000 nM
same,Kd,HLA-A*30:02; [6],≥ 93800 nM
same,Kd,HLA-A*01:01 [1]; [6],≥ 78100 nM
same,Kd,HLA-A*29:02; [6],≥ 78900 nM
same,Kd,HLA-A*26:01; [6],≥ 77900 nM
QYSDRRWCFD,Kd,HLA-A*32:01; [11],≥ 53500 nM
QYSQPQQPI,Kd,HLA-A*23:01; [10],16100 nM
same,Kd,HLA-A*24:02; [10],2620 nM
same,Kd,HLA-A*30:02; [10],93.3 nM
same,Kd,HLA-A*01:01 [1]; [10],≥ 56400 nM
same,Kd,HLA-A*29:02; [10],407 nM
same,Kd,HLA-A*26:01; [10],≥ 77900 nM
RETACLGKAY,Kd,HLA-B*44:03; [12],17.9 nM
RQVEKVETW,Kd,HLA-A*32:01; [12],79.6 nM
RTYSDPLAL,Kd,HLA-A*32:01; [11],33.4 nM
SEFQIYKKSG,Kd,HLA-B*40:01; [9],407 nM
same,Kd,HLA-B*44:03; [9],3730 nM
SGKDTPGGY,Kd,HLA-A*23:01; [13],≥ 77700 nM
same,Kd,HLA-A*24:02; [13],≥ 77500 nM
same,Kd,HLA-A*30:02; [13],2.85 nM
same,Kd,HLA-A*01:01 [1]; [13],13600 nM
same,Kd,HLA-A*29:02; [13],≥ 69700 nM
same,Kd,HLA-A*26:01; [13],≥ 77900 nM
SLFSLLLVI,Kd,HLA-A*32:01; [8],27.5 nM
SVNSFTLLI,Kd,HLA-A*32:01; source organism: Vaccinia virus Copenhagen,2.63 nM
TEATQLATL,Kd,HLA-B*40:01; [12],8.32 nM
TKHPSLNII,Kd,HLA-A*23:01; [14],≥ 53100 nM
same,Kd,HLA-A*24:02; [14],≥ 52100 nM
same,Kd,HLA-A*30:02; [14],≥ 76900 nM
same,Kd,HLA-A*01:01 [1]; [14],≥ 47100 nM
same,Kd,HLA-A*29:02; [14],≥ 78900 nM
same,Kd,HLA-A*26:01; [14],≥ 77900 nM
VAEGQTLDL,Kd,HLA-B*07:02; source organism: Homo sapiens,≥ 87200 nM
VQGPGGSTY,Kd,HLA-A*03:01,14500 nM
same,Kd,HLA-B*15:01,190 nM
same,Kd,HLA-A*11:01,8940 nM
VSVKMFDAY,Kd,HLA-A*23:01; [6],10500 nM
same,Kd,HLA-A*24:02; [6],10300 nM
same,Kd,HLA-A*30:02; [6],639 nM
same,Kd,HLA-A*01:01 [1]; [6],102 nM
same,Kd,HLA-A*29:02; [6],76.6 nM
same,Kd,HLA-A*26:01; [6],11500 nM
VVAIDYRHY,Kd,HLA-A*23:01; [6],≥ 77800 nM
same,Kd,HLA-A*24:02; [6],≥ 77600 nM
same,Kd,HLA-A*30:02; [6],11.7 nM
same,Kd,HLA-A*01:01 [1]; [6],≥ 52600 nM
same,Kd,HLA-A*29:02; [6],64.7 nM
same,Kd,HLA-A*26:01; [6],≥ 22100 nM
YTGNYQCGHY,Kd,HLA-A*23:01; [6],≥ 70000 nM
same,Kd,HLA-A*24:02; [6],≥ 70300 nM
same,Kd,HLA-A*30:02; [6],1.15 nM
same,Kd,HLA-A*01:01 [1]; [6],3.38 nM
same,Kd,HLA-A*29:02; [6],22.5 nM
same,Kd,HLA-A*26:01; [6],128 nM
YYQLESTQI,Kd,HLA-A*23:01; [6],126 nM
same,Kd,HLA-A*24:02; [6],7.7 nM
same,Kd,HLA-A*30:02; [6],≥ 81100 nM
same,Kd,HLA-A*01:01 [1]; [6],≥ 52800 nM
same,Kd,HLA-A*29:02; [6],247 nM
same,Kd,HLA-A*26:01; [6],≥ 77900 nM
